# Changes are numbered by the printed parent chain. Names may count otherwise.
# B1: Saccharomyces cerevisiae UBR1: amino acid recognition protein, SEQ ID NO: 18 (protein, listed as Saccharomyces cerevisiae)
# chain: MGSVHKHTGRNCGRKFKIGEPLYRCHECGCDDTCVLCIHCFNPKDHVNHHVCTDICTEFTSGICDCGDEEAWNSPLHCKAEEQ
# B2: Agrobacterium tumifaciens ClpS2 variant 1 C72S: amino acid recognition protein, SEQ ID NO: 5 (protein, listed as Agrobacterium tumifaciens)
# chain: MSDSPVDLKPKPKVKPKLERPKLYKVMLLNDDYTPMSFVTVVLKAVFRMSEDTGRRVMMTAHRFGSAVVVVSERDIAETKAKEATDLGKEAGFPLMFTTEPEE
# B3: Escherichia coli ClpS: amino acid recognition protein, SEQ ID NO: 13 (protein, listed as Escherichia coli)
# chain: MGKTNDWLDFDQLAEEKVRDALKPPSMYKVILVNDDYTPMEFVIDVLQKFFSYDVERATQLMLAVHYQGKAICGVFTAEVAETKVAMVNKYARENEHPLLCTLEKA
# B4: Escherichia coli ClpS M40A: amino acid recognition protein, SEQ ID NO: 14 (protein, listed as Escherichia coli)
# chain: B3 chain with M40A
# B5: Plasmodium falciparum ClpS: amino acid recognition protein, SEQ ID NO: 15 (protein, listed as Plasmodium falciparum)
# chain: MFKDLKPFFLCIILLLLLIYKCTHSYNIKNKNCPLNFMNSCVRINNVNKNTNISFPKELQKRPSLVYSQKNFNLEKIKKLRNVIKEIKKDNIKEADEHEKKEREKETSAWKVILYNDDIHNFTYVTDVIVKVVGQISKAKAHTITVEAHSTGQALILSTWKSKAEKYCQELQQNGLTVSIIHESQLKDKQKK
# B6: Synechococcus elongatus ClpS2: amino acid recognition protein, SEQ ID NO: 11 (protein, listed as Synechococcus elongatus)
# chain: MSPQPDESVLSILGVPRPCVKKRSRNDAFVLTVLTCSLQAIAAPATAPGTTTTRVRQPYPHFRVIVLDDDVNTFQHVAECLLKYIPGMTGDRAWDLTNQVHYEGAATVWSGPQEQAELYHEQLRREGLTMAPLEAA
# B7: Agrobacterium tumifaciens ClpS1: amino acid recognition protein, SEQ ID NO: 4 (protein, listed as Agrobacterium tumifaciens)
# chain: MIAEPICMQGEGDGEDGGTNRGTSVITRVKPKTKRPNLYRVLLLNDDYTPMEFVIHILERFFQKDREAATRIMLHVHQHGVGECGVFTYEVAETKVSQVMDFARQHQHPLQCVMEKK
# B8: Agrobacterium tumifaciens ClpS1 C7S: amino acid recognition protein, SEQ ID NO: 6 (protein, listed as Agrobacterium tumifaciens)
# chain: B7 chain with C7S
# B9: Agrobacterium tumifaciens ClpS1 C7S C84S C112S: amino acid recognition protein, SEQ ID NO: 7 (protein, listed as Agrobacterium tumifaciens)
# chain: B7 chain with C7S, C84S, C112S
# B10: Escherichia coli leucyl/phenylalanyl-tRNA-protein transferase: amino acid recognition protein, SEQ ID NO: 16 (protein, listed as Escherichia coli)
# chain: MRLVQLSRHSIAFPSPEGALREPNGLLALGGDLSPARLLMAYQRGIFPWFSPGDPILWWSPDPRAVLWPESLHISRSMKRFHKRSPYRVTMNYAFGQVIEGCASDREEGTWITRGVVEAYHRLHELGHAHSIEVWREDELVGGMYGVAQGTLFCGESMFSRMENASKTALLVFCEEFIGHGGKLIDCQVLNDHTASLGACEIPRRDYLNYLNQMRLGRLPNNFWVPRCLFSPQELE
# B11: UBR-box domain from Homo sapiens UBR1: amino acid recognition protein, SEQ ID NO: 32 (protein, listed as Homo sapiens)
# chain: MGPLGSLCGRVFKSGETTYSCRDCAIDPTCVLCMDCFQDSVHKNHRYKMHTSTGGGFCDCGDTEAWKTGPFCVNHEP
# B12: GID4: GID4 evaluated as a potential reagent for proline recognition; species not stated at the place (protein, UniProt Q8IVV7 1-300, looked up)
# Glucose-induced degradation …: MCARGQVGRGTQLRTGRPCSQVPGSRWRPERLLRRQRAGGRPSRPHPARARPGLSLPATLLGSRAAAAVPLPLPPALAPGDPAMPVRTECPPPAGASAASAASLIPPPPINTQQPGVATSLLYSGSKFRGHQKSKGNSYDVEVVLQHVDTGNSYLCGYLKIKGLTEEYPTLTTFFEGEIISKKHPFLTRKWDADEDVDRKHWGKFLAFYQYAKSFNSDDFDYEELKNGDYVFMRWKEQFLVPDHTIKDISGASFAGFYYICFQKSAASIEGYYYHRSSEWYQSLNLTHVPEHSAPIYEFR
# B13: UBR-box domain from Homo sapiens UBR2: amino acid recognition protein, SEQ ID NO: 33 (protein, listed as Homo sapiens)
# chain: MGPLGSLCGRVFKVGEPTYSCRDCAVDPTCVLCMECFLGSIHRDHRYRMTTSGGGGFCDCGDTEAWKEGPYCQKHE
# B14: Synechococcus elongatus ClpS1: amino acid recognition protein, SEQ ID NO: 10 (protein, listed as Synechococcus elongatus)
# chain: MAVETIQKPETTTKRKIAPRYRVLLHNDDFNPMEYVVMVLMQTVPSLTQPQAVDIMMEAHTNGTGLVITCDIEPAEFYCEQLKSHGLSSSIEPDD
# B15: H. sapiens Fyn SH2 domain triple mutant superbinder: amino acid recognition protein, SEQ ID NO: 23 (protein, listed as Homo sapiens)
# chain: MGAMDSIQAEEWYFGKLGRKDAERQLLSFGNPRGTFLIRESETVKGAYALSIRDWDDMKGDHVKHYLIRKLDNGGYYITTRAQFETLQQLVQHYSERAAGLSSRLVVPSHK
# B16: Thermosynechococcus elongatus ClpS: amino acid recognition protein, SEQ ID NO: 12 (protein, listed as Thermosynechococcus elongatus)
# chain: MPQERQQVTRKHYPNYKVIVLNDDFNTFQHVAACLMKYIPNMTSDRAWELTNQVHYEGQAIVWVGPQEQAELYHEQLLRAGLTMAPLEPE
# Assays:
# [1] = system: amino acid at a terminal position of a polypeptide; details: amino acid identity at a terminal position of a polypeptide; phospho-Y also at an internal position; cited from earlier work
# [2] = system: N-terminal amino acid of peptides; assay: Single-molecule terminal amino acid discrimination by labeled affinity reagent (dwell time analysis); format: binding; details: for Terminal amino acid recognition: single molecule traces, dwell time analysis
# Description: An adaptor protein involved in proteolytic pathways was identified as a potential candidate for use as a labeled affinity reagent for detecting N-terminal aromatic residues. The adaptor protein, ClpS2 from an α-proteobacterium (A. tumefaciens), was expressed and labeled at an exposed cysteine residue. […] The exposed cysteine residue was labeled with a rhodamine dye (ATTO 532).
# Peptides having different N-terminal aromatic residues were prepared to test whether the labeled ClpS2 was capable of N-terminal amino acid discrimination at the single molecule level.
# FIG. 19C is a plot showing discriminant pulse durations (time duration of signal peaks) among the three N-terminal residues when reversibly bound by labeled ClpS2. FIG. 19D is a plot showing discriminant interpulse durations (time duration between signal pulses) among the three N-terminal residues. […] Mean pulse duration for the different N-terminal residues is visualized by histograms (A)-(B) and layered histogram (C).
# [3] = system: immobilized peptide FYPLPWPDDDY with N-terminal phenylalanine; assay: Simultaneous single-molecule recognition with differentially labeled recognition molecules; format: binding; details: 500 nM each binder
# Description: Single peptide molecules containing N-terminal phenylalanine ([…] (SEQ ID NO: 79)) were immobilized in sample wells of a chip. Buffer containing 500 nM each of at ClpS1 (Agrobacterium tumefaciens ClpS1; sequence provided in Table 1) and at ClpS2-V1 (Agrobacterium tumefaciens ClpS2 variant 1; sequence provided in Table 1) was added, where at ClpS1 and at ClpS2-V1 were labeled with Cy3 and Cy3B, respectively. Since the intensity of Cy3B is higher than Cy3, at ClpS2-V1 binding events were readily distinguishable from at ClpS1 binding events.
# The pulse duration distributions were distinct for each binder (FIG. 24B) and corresponded to their kinetic profiles as observed in single-binder experiments. Mean pulse duration was 1.3 seconds for at ClpS1 and 1.0 seconds for at ClpS2-V1 (FIG. 24C). Pulse rate was also distinct: 8.1 pulses/min for at ClpS1 and 14.1 pulses/min for at Clp2-V1 (FIG. 24C). Thus, when more than one recognition molecule is included for dynamic recognition of immobilized peptides, the binding characteristics of each recognition molecule (including pulse duration, interpulse duration, and pulse rate) can simultaneously provide information about peptide sequence.
# [4] = target: fluorescently-labeled peptides with N-terminal phospho-tyrosine, tyrosine or phospho-serine (Homo sapiens, UniProt P06241, C239S/C240S/C246S/K204L/S186A/T181V); assay: Single-molecule recognition of post-translationally modified amino acids by immobilized SH2 domain variant
molecule,measurement,setting,value
B1,Binding Pref.,[1],"K, R, H"
B2,Binding Pref.,[1],"F, W, Y"
B3,Binding Pref.,[1],"F, W, Y, L"
B4,Binding Pref.,[1],"F, W, Y, L"
B5,Binding Pref.,[1],"F, W, Y, L,"
B6,Binding Pref.,[1],"F, W, Y, L, and V, I"
same,Terminal amino acid recognition,[2],leucine recognition
B7,Binding Pref.,[1],"F, W, Y, L"
same,Terminal amino acid recognition,[2],"differentiable recognition of phenylalanine, leucine, tryptophan, and tyrosine"
same,Mean pulse duration,[3],1.3 s
same,Pulse rate,[3],8.1 pulses/min
B8,Binding Pref.,[1],"F, W, Y, L"
B9,Binding Pref.,[1],"F, W, Y, L"
B10,Binding Pref.,[1],"K, R"
B11,Binding Pref.,[1],"K, R, H"
B12,Terminal amino acid recognition,[2],proline recognition
B13,Binding Pref.,[1],"K, R, H"
B14,Binding Pref.,[1],"F, W, Y"
B15,Peptide binding by the immobilized protein,[4]; peptide with N-terminal and penultimate unmodified tyrosines (YY),not detected
same,Peptide binding by the immobilized protein,[4]; peptide with N-terminal phospho-serine,not detected
same,Peptide binding by the immobilized protein,[4]; peptide with N-terminal phospho-tyrosine,detected
same,Peptide binding by the immobilized protein,[4]; peptide with N-terminal unmodified tyrosine (Y),not detected
same,Binding Pref.,[1],phospho-Y
B16,Binding Pref.,[1],"F, W, Y, L"
same,Mean pulse duration,[2]; terminal leucine residue of polypeptides,0.71 s

# From patent US12618845B2, “Methods and compositions for protein sequencing” (Quantum-Si Incorporated, priority 2018, dated 2026)
